B1: wild type (WT) human TRPA1 (Transient Receptor Potential Ankyrin subtype 1) (natural protein, UniProt O75762 1-1119, looked up)
chain: MKRSLRKMWRPGEKKEPQGVVYEDVPDDTEDFKESLKVVFEGSAYGLQNFNKQKKLKRCDDMDTFFLHYAAAEGQIELMEKITRDSSLEVLHEMDDYGNTPLHCAVEKNQIESVKFLLSRGANPNLRNFNMMAPLHIAVQGMNNEVMKVLLEHRTIDVNLEGENGNTAVIIACTTNNSEALQILLKKGAKPCKSNKWGCFPIHQAAFSGSKECMEIILRFGEEHGYSRQLHINFMNNGKATPLHLAVQNGDLEMIKMCLDNGAQIDPVEKGRCTAIHFAATQGATEIVKLMISSYSGSVDIVNTTDGCHETMLHRASLFDHHELADYLISVGADINKIDSEGRSPLILATASASWNIVNLLLSKGAQVDIKDNFGRNFLHLTVQQPYGLKNLRPEFMQMQQIKELVMDEDNDGCTPLHYACRQGGPGSVNNLLGFNVSIHSKSKDKKSPLHFAASYGRINTCQRLLQDISDTRLLNEGDLHGMTPLHLAAKNGHDKVVQLLLKKGALFLSDHNGWTALHHASMGGYTQTMKVILDTNLKCTDRLDEDGNTALHFAAREGHAKAVALLLSHNADIVLNKQQASFLHLALHNKRKEVVLTIIRSKRWDECLKIFSHNSPGNKCPITEMIEYLPECMKVLLDFCMLHSTEDKSCRDYYIEYNFKYLQCPLEFTKKTPTQDVIYEPLTALNAMVQNNRIELLNHPVCKEYLLMKWLAYGFRAHMMNLGSYCLGLIPMTILVVNIKPGMAFNSTGIINETSDHSEILDTTNSYLIKTCMILVFLSSIFGYCKEAGQIFQQKRNYFMDISNVLEWIIYTTGIIFVLPLFVEIPAHLQWQCGAIAVYFYWMNFLLYLQRFENCGIFIVMLEVILKTLLRSTVVFIFLLLAFGLSFYILLNLQDPFSSPLLSIIQTFSMMLGDINYRESFLEPYLRNELAHPVLSFAQLVSFTIFVPIVLMNLLIGLAVGDIAEVQKHASLKRIAMQVELHTSLEKKLPLWFLRKVDQKSTIVYPNKPRSGGMLFHIFCFLFCTGEIRQEIPNADKSLEMEILKQKYRLKDLTFLLEKQHELIKLIIQKMEIISETEDDDSHCSFQDRFKKEQMEQRNSRWNTVLRAVKAKTHHLEP
notes: human TRPA1, wild type, 1119 amino acids; Plasmid details are in the Supplementary Information; also called WT TRPA1; WT hTRPA1; source: HEK293T, transfected, in lysate (in intact cells for proximity biotinylation)

How the values were obtained:
[1] = target: B1; assay: pull-down; FLAG-MBP-WT and Strep-MBP-R919* hTRPA1 co-transfected; lysates tandem purified for Strep- then FLAG-tagged proteins; eluates probed with anti-MBP antibody, band intensities normalised to WT; conditions: partners not purified
[2] = target: the molecule itself; assay: co-IP + SEC; GFP- and 3×FLAG-tagged subunits co-expressed in HEK293T cells; anti-FLAG immunoprecipitation, eluates analysed by fluorescence size exclusion chromatography (FSEC) of the GFP-tagged subunit; anti-FLAG blot of peak fractions

Binder	stoichiometry N [1]	stoichiometry N [2]
R919* human TRPA1 mutant (CRAMPT syndrome truncation) (domain or fragment, UniProt O75762 1-918, looked up, human TRPA1 with the patients' nonsense mutation at R919 (c.2755C>T); lacks the final 201 of 1119 amino acids (second pore helix, S6 and the whole cytoplasmic C-terminus); also called R919* TRPA1; R919* hTRPA1; source: HEK293T, transfected, in lysate (in intact cells for proximity biotinylation)) MKRSLRKMWRPGEKKEPQGVVYEDVPDDTEDFKESLKVVFEGSAYGLQNFNKQKKLKRCDDMDTFFLHYAAAEGQIELMEKITRDSSLEVLHEMDDYGNTPLHCAVEKNQIESVKFLLSRGANPNLRNFNMMAPLHIAVQGMNNEVMKVLLEHRTIDVNLEGENGNTAVIIACTTNNSEALQILLKKGAKPCKSNKWGCFPIHQAAFSGSKECMEIILRFGEEHGYSRQLHINFMNNGKATPLHLAVQNGDLEMIKMCLDNGAQIDPVEKGRCTAIHFAATQGATEIVKLMISSYSGSVDIVNTTDGCHETMLHRASLFDHHELADYLISVGADINKIDSEGRSPLILATASASWNIVNLLLSKGAQVDIKDNFGRNFLHLTVQQPYGLKNLRPEFMQMQQIKELVMDEDNDGCTPLHYACRQGGPGSVNNLLGFNVSIHSKSKDKKSPLHFAASYGRINTCQRLLQDISDTRLLNEGDLHGMTPLHLAAKNGHDKVVQLLLKKGALFLSDHNGWTALHHASMGGYTQTMKVILDTNLKCTDRLDEDGNTALHFAAREGHAKAVALLLSHNADIVLNKQQASFLHLALHNKRKEVVLTIIRSKRWDECLKIFSHNSPGNKCPITEMIEYLPECMKVLLDFCMLHSTEDKSCRDYYIEYNFKYLQCPLEFTKKTPTQDVIYEPLTALNAMVQNNRIELLNHPVCKEYLLMKWLAYGFRAHMMNLGSYCLGLIPMTILVVNIKPGMAFNSTGIINETSDHSEILDTTNSYLIKTCMILVFLSSIFGYCKEAGQIFQQKRNYFMDISNVLEWIIYTTGIIFVLPLFVEIPAHLQWQCGAIAVYFYWMNFLLYLQRFENCGIFIVMLEVILKTLLRSTVVFIFLLLAFGLSFYILLNLQDPFSSPLLSIIQTFSMMLGDINY	1.3 R919* subunits per WT subunit	–
B1	–	4

— paper PMC10199097, “Molecular mechanism of hyperactivation conferred by a truncation of TRPA1” (Nature Communications, 2023)
